Laboratory results taken from article PMC2801614, “Promoter Recognition by a Complex of Spx and the C-Terminal Domain of the RNA Polymerase α Subunit” (PLoS ONE, 2010).

Assays:
wild-type Spx protein = molecular target: T1, wild-type Spx protein (Bacillus subtilis, UniProt O31602 1-131); assay: native gel or EMSA; supershift of the αCTD-trxB promoter (-56 to -21) complex; 5 µM Spx and 5 µM αCTD preincubated 10 min at room temperature in 20 mM Tris-HCl pH 7.8, 50 mM NaCl, 5 mM MgCl2, 10% glycerol, then 32P-labelled probe 15 min; 6% native polyacrylamide gel in TGE buffer; no DTT; settings: both partners purified
T1 construct: Spx of Bacillus subtilis; Made with the self-cleavable intein system (New England Biolabs); also called oxidized Spx; source: E. coli ER2566 (pMMN470), purified (chitin column, High S column)
T1 sequence (looked up): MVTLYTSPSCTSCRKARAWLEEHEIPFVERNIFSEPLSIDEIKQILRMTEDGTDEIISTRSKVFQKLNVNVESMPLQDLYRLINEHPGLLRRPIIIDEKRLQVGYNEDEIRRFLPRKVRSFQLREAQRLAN

[1] = molecular target: T2, alphaCTD (C-terminal domain of RNA polymerase alpha subunit) (Bacillus subtilis, UniProt P20429 225-314); assay: EMSA; 5 uM alphaCTD; EMSA: 20 mM Tris-HCl pH 7.8, 50 mM NaCl, 5 mM MgCl2, 10% glycerol, 5 uM each protein unless stated, room temperature (10 min preincubation, 15 min with probe); settings: protein: recombinant; tags: tag-free after self-cleavable intein/chitin purification; label: 32P-dA at 3' end of the S42 strand (Klenow fill-in); blunt after Klenow fill-in of S42 (35-mer)
T2 sequence: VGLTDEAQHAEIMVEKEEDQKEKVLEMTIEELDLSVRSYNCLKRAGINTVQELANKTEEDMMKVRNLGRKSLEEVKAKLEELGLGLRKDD

[2] = molecular target: T3, alphaCTD (C-terminal domain of RNA polymerase alpha subunit);SpxR60E (Bacillus subtilis;Bacillus subtilis, UniProt P20429;O31602 225-314;1-131, |R60E); assay: EMSA; 5 uM each; SpxR60E also prevents the alphaCTD-DNA complex; EMSA: 20 mM Tris-HCl pH 7.8, 50 mM NaCl, 5 mM MgCl2, 10% glycerol, 5 uM each protein unless stated, room temperature (10 min preincubation, 15 min with probe); settings: protein: recombinant;recombinant; tags: tag-free after self-cleavable intein/chitin purification;intein (pTYB4), cleaved; cloned via NcoI/SmaI; copies: 1;1; label: 32P-dA at 3' end of the S42 strand (Klenow fill-in); blunt after Klenow fill-in of S42 (35-mer)
T3 sequence 1: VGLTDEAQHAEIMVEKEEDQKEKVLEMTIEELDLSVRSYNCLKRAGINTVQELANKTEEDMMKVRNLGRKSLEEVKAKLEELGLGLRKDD
T3 sequence 2: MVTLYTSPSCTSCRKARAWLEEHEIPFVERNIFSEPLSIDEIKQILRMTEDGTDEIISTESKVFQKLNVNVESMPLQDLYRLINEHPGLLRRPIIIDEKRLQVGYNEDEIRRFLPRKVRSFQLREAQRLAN

Spx wild-type = molecular target: T4, Spx wild-type (Bacillus subtilis, UniProt O31602 1-131); assay: EMSA; 5 uM Spx alone; EMSA: 20 mM Tris-HCl pH 7.8, 50 mM NaCl, 5 mM MgCl2, 10% glycerol, 5 uM each protein unless stated, room temperature (10 min preincubation, 15 min with probe); settings: protein: recombinant; tags: tag-free after self-cleavable intein/chitin purification; label: 32P-dA at 3' end of the S42 strand (Klenow fill-in); blunt after Klenow fill-in of S42 (35-mer)
T4 sequence: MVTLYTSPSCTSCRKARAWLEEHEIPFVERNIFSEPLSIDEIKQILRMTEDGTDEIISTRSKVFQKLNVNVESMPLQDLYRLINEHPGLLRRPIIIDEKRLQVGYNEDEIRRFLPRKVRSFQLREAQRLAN

[3] = molecular target: T2, alphaCTD (C-terminal domain of RNA …); assay: EMSA; EMSA: 20 mM Tris-HCl pH 7.8, 50 mM NaCl, 5 mM MgCl2, 10% glycerol, 5 uM each protein unless stated, room temperature (10 min preincubation, 15 min with probe); settings: protein: recombinant; tags: tag-free after self-cleavable intein/chitin purification; label: 32P-dA at 3' end of the S44 strand (Klenow fill-in); blunt after Klenow fill-in of S44 (35-mer)

B1: αCTD (residues 225–314) (domain or fragment, Bacillus subtilis, UniProt P20429 225-314, looked up)
chain: VGLTDEAQHAEIMVEKEEDQKEKVLEMTIEELDLSVRSYNCLKRAGINTVQELANKTEEDMMKVRNLGRKSLEEVKAKLEELGLGLRKDD
notes: RNA polymerase α subunit (RpoA) of Bacillus subtilis, C-terminal domain, residues 225-314; Made with the self-cleavable intein system (New England Biolabs); also called rpoA-CTD; source: E. coli BL21/pLysS (pSN37), purified (chitin column, High Q column)
wild-type Spx protein
  binding result: binds

B2: trxB promoter (-56 to -21) (dsDNA)
DNA 1: TAATCGTGTTGAGCAAAAAAATAGCGTATCACCATG
DNA 2: CATGGTGATACGCTATTTTTTTGCTCAACACGATTA
[1]
  binding result: binds
[2]
  binding result: no binding
Spx wild-type
  binding result: no binding

B3: trxB (-56 to -21) G-44A G-33A (dsDNA)
DNA 1: TAATCGTGTTGAACAAAAAAATAACGTATCACCATG
DNA 2: CATGGTGATACGTTATTTTTTTGTTCAACACGATTA
[3]
  binding result: binds
